Test results from article PMC8254039, “Oxalate decarboxylase uses electron hole hopping for catalysis” (The Journal of Biological Chemistry, 2021).

Tests used:
[1] = target: the molecule itself; experiment: native gel or EMSA; native PAGE of the mutant proteins after purification, compared with WT (Fig. S3); self-assembly of the subunits
purified protein = substrate: O=C(O)C(=O)O; experiment: purified protein; details: pH 4.2, 25 °C
[2] = 50 mM poly buffer, 500 mM NaCl, Triton X-100, o-phenylenediamine, 1.93 Mn per subunit
[3] = same buffer, 0.58 Mn per subunit
[4] = same buffer, 1.89 Mn per subunit
[5] = same buffer, 1.34 Mn per subunit
[6] = same buffer, 0.55 Mn per subunit
[7] = same buffer, 0.33 Mn per subunit

B1: oxalate decarboxylase (OxDC) of Bacillus subtilis, wild type, His6-tagged (enzyme)
chain: MKKQNDIPQPIRGDKGATVKIPRNIERDRQNPDMLVPPETDHGTVSNMKFSFSDTHNRLEKGGYAREVTVRELPISENLASVNMRLKPGAIRELHWHKEAEWAYMIYGSARVTIVDEKGRSFIDDVGEGDLWYFPSGLPHSIQALEEGAEFLLVFDDGSFSENSTFQLTDWLAHTPKEVIAANFGVTKEEISNLPGKEKYIFENQLPGSLKDDIVEGPNGEVPYPFTYRLLEQEPIESEGGKVYIADSTNFKVSKTIASALVTVEPGAMRELHWHPNTHEWQYYISGKARMTVFASDGHARTFNYQAGDVGYVPFAMGHYVENIGDEPLVFLEIFKDDHYADVSLNQWLAMLPETFVQAHLDLGKDFTDVLSKEKHPVVKKKCSK
notes: oxalate decarboxylase (OxDC), Bacillus subtilis, YvrK gene; Vector printed as PET32A with the YvrK gene; also called WT OxDC; WT; source: E. coli (overexpressed), purified (nickel-NTA, HiTrap Q anion exchange, Superdex 200 gel filtration)
In the case of B1, the binding result [1] is reported as “binds”, the Km (purified protein; [2]) is reported as 33.3 ± 0.4 mM and the kcat (purified protein; [2]) is reported as 89.2 ± 1.4 s⁻¹.

B2: oxalate decarboxylase (OxDC) of Bacillus subtilis, W274F mutant, His6-tagged (enzyme)
chain: MKKQNDIPQPIRGDKGATVKIPRNIERDRQNPDMLVPPETDHGTVSNMKFSFSDTHNRLEKGGYAREVTVRELPISENLASVNMRLKPGAIRELHWHKEAEWAYMIYGSARVTIVDEKGRSFIDDVGEGDLWYFPSGLPHSIQALEEGAEFLLVFDDGSFSENSTFQLTDWLAHTPKEVIAANFGVTKEEISNLPGKEKYIFENQLPGSLKDDIVEGPNGEVPYPFTYRLLEQEPIESEGGKVYIADSTNFKVSKTIASALVTVEPGAMRELHFHPNTHEWQYYISGKARMTVFASDGHARTFNYQAGDVGYVPFAMGHYVENIGDEPLVFLEIFKDDHYADVSLNQWLAMLPETFVQAHLDLGKDFTDVLSKEKHPVVKKKCSK
notes: oxalate decarboxylase (OxDC), Bacillus subtilis, YvrK gene, with W274F; 385 residues per subunit; Said to assemble like the wild type on native PAGE; no crystal structure; source: E. coli (overexpressed), purified (nickel-NTA, HiTrap Q anion exchange, Superdex 200 gel filtration)
For B2, the binding result [1] was “binds”, the Km (purified protein; [3]) was 6.7 ± 0.3 mM and the kcat (purified protein; [3]) was 1.10 ± 0.03 s⁻¹.

B3: oxalate decarboxylase (OxDC) (Bacillus subtilis subsp. subtilis str. 168; W274Y) (protein)
chain: MKKQNDIPQPIRGDKGATVKIPRNIERDRQNPDMLVPPETDHGTVSNMKFSFSDTHNRLEKGGYAREVTVRELPISENLASVNMRLKPGAIRELHWHKEAEWAYMIYGSARVTIVDEKGRSFIDDVGEGDLWYFPSGLPHSIQALEEGAEFLLVFDDGSFSENSTFQLTDWLAHTPKEVIAANFGVTKEEISNLPGKEKYIFENQLPGSLKDDIVEGPNGEVPYPFTYRLLEQEPIESEGGKVYIADSTNFKVSKTIASALVTVEPGAMRELHYHPNTHEWQYYISGKARMTVFASDGHARTFNYQAGDVGYVPFAMGHYVENIGDEPLVFLEIFKDDHYADVSLNQWLAMLPETFVQAHLDLGKDFTDVLSKEKHPVVKKKCSK
B3 showed a Km (purified protein; [4]) of 10.3 ± 3.1 mM and a kcat (purified protein; [4]) of 23.9 ± 2.8 s⁻¹.

B4: oxalate decarboxylase (OxDC) of Bacillus subtilis, W96Y mutant, His6-tagged (enzyme)
chain: MKKQNDIPQPIRGDKGATVKIPRNIERDRQNPDMLVPPETDHGTVSNMKFSFSDTHNRLEKGGYAREVTVRELPISENLASVNMRLKPGAIRELHYHKEAEWAYMIYGSARVTIVDEKGRSFIDDVGEGDLWYFPSGLPHSIQALEEGAEFLLVFDDGSFSENSTFQLTDWLAHTPKEVIAANFGVTKEEISNLPGKEKYIFENQLPGSLKDDIVEGPNGEVPYPFTYRLLEQEPIESEGGKVYIADSTNFKVSKTIASALVTVEPGAMRELHWHPNTHEWQYYISGKARMTVFASDGHARTFNYQAGDVGYVPFAMGHYVENIGDEPLVFLEIFKDDHYADVSLNQWLAMLPETFVQAHLDLGKDFTDVLSKEKHPVVKKKCSK
notes: oxalate decarboxylase (OxDC), Bacillus subtilis, YvrK gene, with W96Y; 385 residues per subunit; Quaternary assembly in the crystal agrees with that of the hexameric wild type (5VG3); source: E. coli (overexpressed), purified (nickel-NTA, HiTrap Q anion exchange, Superdex 200 gel filtration)
B4: binds [1].

B5: oxalate decarboxylase (OxDC) of Bacillus subtilis, W96Y/W274Y double mutant, His6-tagged (enzyme)
chain: MKKQNDIPQPIRGDKGATVKIPRNIERDRQNPDMLVPPETDHGTVSNMKFSFSDTHNRLEKGGYAREVTVRELPISENLASVNMRLKPGAIRELHYHKEAEWAYMIYGSARVTIVDEKGRSFIDDVGEGDLWYFPSGLPHSIQALEEGAEFLLVFDDGSFSENSTFQLTDWLAHTPKEVIAANFGVTKEEISNLPGKEKYIFENQLPGSLKDDIVEGPNGEVPYPFTYRLLEQEPIESEGGKVYIADSTNFKVSKTIASALVTVEPGAMRELHYHPNTHEWQYYISGKARMTVFASDGHARTFNYQAGDVGYVPFAMGHYVENIGDEPLVFLEIFKDDHYADVSLNQWLAMLPETFVQAHLDLGKDFTDVLSKEKHPVVKKKCSK
notes: oxalate decarboxylase (OxDC), Bacillus subtilis, YvrK gene, with W96Y and W274Y; 385 residues per subunit; Said to assemble like the wild type on native PAGE; no crystal structure; source: E. coli (overexpressed), purified (nickel-NTA, HiTrap Q anion exchange, Superdex 200 gel filtration)
B5: binds [1].

B6: oxalate decarboxylase (OxDC) of Bacillus subtilis, W96F/W274F double mutant, His6-tagged (enzyme)
chain: MKKQNDIPQPIRGDKGATVKIPRNIERDRQNPDMLVPPETDHGTVSNMKFSFSDTHNRLEKGGYAREVTVRELPISENLASVNMRLKPGAIRELHFHKEAEWAYMIYGSARVTIVDEKGRSFIDDVGEGDLWYFPSGLPHSIQALEEGAEFLLVFDDGSFSENSTFQLTDWLAHTPKEVIAANFGVTKEEISNLPGKEKYIFENQLPGSLKDDIVEGPNGEVPYPFTYRLLEQEPIESEGGKVYIADSTNFKVSKTIASALVTVEPGAMRELHFHPNTHEWQYYISGKARMTVFASDGHARTFNYQAGDVGYVPFAMGHYVENIGDEPLVFLEIFKDDHYADVSLNQWLAMLPETFVQAHLDLGKDFTDVLSKEKHPVVKKKCSK
notes: oxalate decarboxylase (OxDC), Bacillus subtilis, YvrK gene, with W96F and W274F; 385 residues per subunit; Said to assemble like the wild type on native PAGE; no crystal structure; source: E. coli (overexpressed), purified (nickel-NTA, HiTrap Q anion exchange, Superdex 200 gel filtration)
B6: binds [1].

B7: oxalate decarboxylase (OxDC) of Bacillus subtilis, W274Y mutant, His6-tagged (enzyme)
chain: MKKQNDIPQPIRGDKGATVKIPRNIERDRQNPDMLVPPETDHGTVSNMKFSFSDTHNRLEKGGYAREVTVRELPISENLASVNMRLKPGAIRELHWHKEAEWAYMIYGSARVTIVDEKGRSFIDDVGEGDLWYFPSGLPHSIQALEEGAEFLLVFDDGSFSENSTFQLTDWLAHTPKEVIAANFGVTKEEISNLPGKEKYIFENQLPGSLKDDIVEGPNGEVPYPFTYRLLEQEPIESEGGKVYIADSTNFKVSKTIASALVTVEPGAMRELHYHPNTHEWQYYISGKARMTVFASDGHARTFNYQAGDVGYVPFAMGHYVENIGDEPLVFLEIFKDDHYADVSLNQWLAMLPETFVQAHLDLGKDFTDVLSKEKHPVVKKKCSK
notes: oxalate decarboxylase (OxDC), Bacillus subtilis, YvrK gene, with W274Y; 385 residues per subunit; Said to assemble like the wild type on native PAGE; no crystal structure; source: E. coli (overexpressed), purified (nickel-NTA, HiTrap Q anion exchange, Superdex 200 gel filtration)
B7: binds [1].

B8: oxalate decarboxylase (OxDC) (Bacillus subtilis subsp. subtilis str. 168; W96Y) (protein)
chain: MKKQNDIPQPIRGDKGATVKIPRNIERDRQNPDMLVPPETDHGTVSNMKFSFSDTHNRLEKGGYAREVTVRELPISENLASVNMRLKPGAIRELHYHKEAEWAYMIYGSARVTIVDEKGRSFIDDVGEGDLWYFPSGLPHSIQALEEGAEFLLVFDDGSFSENSTFQLTDWLAHTPKEVIAANFGVTKEEISNLPGKEKYIFENQLPGSLKDDIVEGPNGEVPYPFTYRLLEQEPIESEGGKVYIADSTNFKVSKTIASALVTVEPGAMRELHWHPNTHEWQYYISGKARMTVFASDGHARTFNYQAGDVGYVPFAMGHYVENIGDEPLVFLEIFKDDHYADVSLNQWLAMLPETFVQAHLDLGKDFTDVLSKEKHPVVKKKCSK
B8 was tested, and the Km (purified protein; [5]) was 3.7 ± 0.9 mM and the kcat (purified protein; [5]) was 5.3 ± 0.9 s⁻¹.

B9: oxalate decarboxylase (OxDC) of Bacillus subtilis, W96F mutant, His6-tagged (enzyme)
chain: MKKQNDIPQPIRGDKGATVKIPRNIERDRQNPDMLVPPETDHGTVSNMKFSFSDTHNRLEKGGYAREVTVRELPISENLASVNMRLKPGAIRELHFHKEAEWAYMIYGSARVTIVDEKGRSFIDDVGEGDLWYFPSGLPHSIQALEEGAEFLLVFDDGSFSENSTFQLTDWLAHTPKEVIAANFGVTKEEISNLPGKEKYIFENQLPGSLKDDIVEGPNGEVPYPFTYRLLEQEPIESEGGKVYIADSTNFKVSKTIASALVTVEPGAMRELHWHPNTHEWQYYISGKARMTVFASDGHARTFNYQAGDVGYVPFAMGHYVENIGDEPLVFLEIFKDDHYADVSLNQWLAMLPETFVQAHLDLGKDFTDVLSKEKHPVVKKKCSK
notes: oxalate decarboxylase (OxDC), Bacillus subtilis, YvrK gene, with W96F; 385 residues per subunit; Quaternary assembly in the crystal agrees with that of the hexameric wild type (5VG3); source: E. coli (overexpressed), purified (nickel-NTA, HiTrap Q anion exchange, Superdex 200 gel filtration)
In the case of B9, the binding result [1] is reported as “binds”, the Km (purified protein; [6]) is reported as 16.0 ± 1.5 mM and the kcat (purified protein; [6]) is reported as 1.00 ± 0.03 s⁻¹.

B10: oxalate decarboxylase (OxDC) (Bacillus subtilis subsp. subtilis str. 168; W274Y/W96Y) (protein)
chain: MKKQNDIPQPIRGDKGATVKIPRNIERDRQNPDMLVPPETDHGTVSNMKFSFSDTHNRLEKGGYAREVTVRELPISENLASVNMRLKPGAIRELHYHKEAEWAYMIYGSARVTIVDEKGRSFIDDVGEGDLWYFPSGLPHSIQALEEGAEFLLVFDDGSFSENSTFQLTDWLAHTPKEVIAANFGVTKEEISNLPGKEKYIFENQLPGSLKDDIVEGPNGEVPYPFTYRLLEQEPIESEGGKVYIADSTNFKVSKTIASALVTVEPGAMRELHYHPNTHEWQYYISGKARMTVFASDGHARTFNYQAGDVGYVPFAMGHYVENIGDEPLVFLEIFKDDHYADVSLNQWLAMLPETFVQAHLDLGKDFTDVLSKEKHPVVKKKCSK
With B10 the Km (purified protein; [7]) was 5.6 ± 0.5 mM and the kcat (purified protein; [7]) was 0.20 ± 0.01 s⁻¹.
